# In publication PMC10617981 (2023):
# B1: NSP9 recombinant protein (Abcam, ab289608) (natural protein)
# chain: NNELSPVALRQMSCAAGTTQTACTDDNALAYYNTTKGGRFVLALLSDLQDLKWARFPKSDGTGTIYTELEPPCRFVTDTPKGPKVKYLYFIKGLNNLNRGMVLGSLAATVRLQ
# Target: T1, SND1 recombinant protein (Origene, TP300059) (human, UniProt Q7KZF4 1-910, site-specific cysteine labeling with the RED-MALEIMIDE 2nd Generation kit (fluorescent dye))
# T1 chain: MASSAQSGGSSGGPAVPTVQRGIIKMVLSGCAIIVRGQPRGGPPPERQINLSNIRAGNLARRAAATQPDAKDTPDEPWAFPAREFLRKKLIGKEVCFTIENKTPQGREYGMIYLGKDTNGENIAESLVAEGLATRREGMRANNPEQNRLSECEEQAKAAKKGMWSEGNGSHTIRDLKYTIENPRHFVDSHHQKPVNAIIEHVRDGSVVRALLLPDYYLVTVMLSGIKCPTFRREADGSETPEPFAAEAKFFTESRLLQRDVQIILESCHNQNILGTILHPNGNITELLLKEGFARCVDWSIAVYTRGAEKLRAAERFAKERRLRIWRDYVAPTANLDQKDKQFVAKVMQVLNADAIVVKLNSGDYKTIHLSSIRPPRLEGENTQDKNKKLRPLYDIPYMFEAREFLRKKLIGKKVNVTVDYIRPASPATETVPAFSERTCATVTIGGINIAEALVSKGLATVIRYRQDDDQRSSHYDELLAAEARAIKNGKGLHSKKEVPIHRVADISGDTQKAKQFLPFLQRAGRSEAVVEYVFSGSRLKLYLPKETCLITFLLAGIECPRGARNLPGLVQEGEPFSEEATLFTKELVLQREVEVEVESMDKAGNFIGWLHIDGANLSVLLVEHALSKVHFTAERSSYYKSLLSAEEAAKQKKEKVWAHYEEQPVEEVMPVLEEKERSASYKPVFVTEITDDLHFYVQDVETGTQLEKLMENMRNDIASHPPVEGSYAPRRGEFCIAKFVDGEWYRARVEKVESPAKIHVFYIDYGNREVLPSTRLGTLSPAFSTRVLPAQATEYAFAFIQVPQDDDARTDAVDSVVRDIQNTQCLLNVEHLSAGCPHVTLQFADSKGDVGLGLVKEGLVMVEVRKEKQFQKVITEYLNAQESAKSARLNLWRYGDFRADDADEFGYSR
# Test: MST
binder,measurement,value
B1,Kd,8.8 µM
